According to US20170152308A1 (Biogen, published 2017):
Like-named read-outs stand apart in the source and are kept apart here.

T1: His-huTDP-43 domain III (amino acid residues 183-273) (human)
T1 construct: Amino terminal His-tagged fragment, E. coli
T1 chain: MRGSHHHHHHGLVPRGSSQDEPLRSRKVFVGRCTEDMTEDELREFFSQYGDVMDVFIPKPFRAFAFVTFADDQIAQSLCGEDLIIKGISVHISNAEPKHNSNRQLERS

T2: His-huTDP-43 domain II (amino acid residues 99-204) (human)
T2 construct: Amino terminal His-tagged fragment, E. coli
T2 chain: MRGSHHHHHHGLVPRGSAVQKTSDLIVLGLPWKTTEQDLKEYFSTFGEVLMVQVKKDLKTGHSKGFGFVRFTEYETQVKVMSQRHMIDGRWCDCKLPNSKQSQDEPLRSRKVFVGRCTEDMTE

T3: His-huTDP-43 domain I (amino acid residues 2-106) (human)
T3 construct: Amino terminal His-tagged fragment, E. coli; also called N-terminal domain
T3 chain: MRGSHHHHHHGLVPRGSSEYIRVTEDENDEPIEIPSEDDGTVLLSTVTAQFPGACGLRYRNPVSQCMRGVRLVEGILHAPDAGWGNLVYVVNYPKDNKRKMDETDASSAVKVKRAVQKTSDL


What was measured:
[1] = molecular target: T4, His-huTDP-43 domain IV (amino acid residues 258-414) (human, UniProt Q13148 258-414); experiment: Western blot
T4 construct: Amino terminal His-tagged fragment, E. coli, solubilized in 8 M urea; also called Glycine-rich domain
T4 sequence (Q13148 other isoform, or with tags, fused parts or gaps limits assumed): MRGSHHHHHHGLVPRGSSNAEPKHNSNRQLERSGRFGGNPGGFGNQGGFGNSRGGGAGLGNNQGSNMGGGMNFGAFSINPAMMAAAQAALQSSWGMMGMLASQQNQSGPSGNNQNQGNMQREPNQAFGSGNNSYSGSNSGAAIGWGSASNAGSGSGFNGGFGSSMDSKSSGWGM
Description: (§1) Non-specific binding sites were blocked for 1 hr. at room temperature with PBST containing 2% BSA (Sigma, Buchs, Switzerland). Blots were incubated overnight with primary antibodies (10 nM) followed by either a donkey anti-human IgGγ-specific secondary antibody conjugated with HRP (Jackson ImmunoResearch, USA) or a goat-anti mouse IgG (H+L)-specific secondary antibody conjugated with HRP (Jackson ImmunoResearch, USA). Blots were developed using ECL and ImageQuant 350 detection (GE Healthcare, Otelfingen, Switzerland).
(§2) Commercially available TDP-43 specific antibody TARDBP (M01), clone 2E2-D3 (Abnova, Taiwan) was used as positive control for human TDP-43 detection whereas, an anti-human IgG Fcγ-specific antibody was used as a negative control. Binding of the human-derived antibodies to specific TDP-43 domains was determined by Western Blot analysis.

[2] = molecular target: T1, His-huTDP-43 domain III (amino acid …); experiment: Western blot
Description: as §1, §2

[3] = molecular target: T2, His-huTDP-43 domain II (amino acid …); experiment: Western blot
Description: as §1, §2

[4] = molecular target: T3, His-huTDP-43 domain I (amino acid …); experiment: Western blot
Description: as §1, §2

[5] = molecular target: T5, recombinant full-length His-tagged human TDP-43 (2-414) (human, UniProt Q13148 2-414); experiment: direct ELISA, coated antigen
T5 construct: Amino terminal His tag, made in E. coli, purified in 8 M urea; also called full length TDP-43; full-length TDP-43
Description: (§3) The half maximal effective concentration (EC₅₀) of the human-derived TDP-43-specific antibodies for human TDP-43 and their target target-specificity was determined substantially as described in Example 2 above. Briefly, 96 well microplates (Corning) were coated with recombinant full length TDP-43 (Biogen Idec, USA), Escherichia coli extract and BSA (Sigma, Buchs, Switzerland), diluted to a concentration of 5 μg/ml in carbonate ELISA coating buffer (pH 9.6) overnight at 4° C. […] Non-specific binding sites were blocked for 1 hr. at room temperature with PBS containing 2% BSA (Sigma, Buchs, Switzerland). Human TDP-43-specific antibodies were diluted to the indicated concentrations and incubated 1 hr. at room temperature. Binding was determined using a donkey anti-human IgGγ-specific secondary antibody conjugated with HRP (Jackson ImmunoResearch, USA), followed by measurement of HRP activity in a standard colorimetric assay. EC₅₀ values were estimated by a non-linear regression using GraphPad Prism software (San Diego, USA).

[6] = molecular target: T5, recombinant full-length His-tagged …; experiment: direct ELISA, coated antigen; remark: listed apart in the source
Description: as §3

[7] = molecular target: T1, His-huTDP-43 domain III (amino acid …); experiment: direct ELISA, TDP-43 fragments coated at 6.6 ug/ml, OD 450
Description: (§4) Non-specific binding sites were blocked for 1 hr. at room temperature with PBST containing 2% BSA (Sigma, Buchs, Switzerland). Antibodies were incubated 1 hr. at room temperature. Binding was determined using either a donkey anti-human IgGγ-specific antibody conjugated with HRP (Jackson ImmunoResearch, USA) or a goat-anti mouse IgG (H+L)-specific secondary antibody conjugated with HRP (Jackson ImmunoResearch, USA)., followed by measurement of HRP activity in a standard colorimetric assay.

[8] = molecular target: T2, His-huTDP-43 domain II (amino acid …); experiment: as above
Description: as §4

[9] = molecular target: T3, His-huTDP-43 domain I (amino acid …); experiment: as above
Description: as §4

[10] = molecular target: T6, 6xHis-SUMO-TDP-43 (220-414) (human, UniProt Q13148 220-414); experiment: capture ELISA, antigen held by anti-6xHis antibody
T6 construct: Captured on the plate by an anti-6xHis antibody; also called 6xHis/SUMO tagged truncated TDP-43; not shown: N-terminal 6xHis and SUMO tags from a modified pET19-b vector
T6 sequence (Q13148 220-414): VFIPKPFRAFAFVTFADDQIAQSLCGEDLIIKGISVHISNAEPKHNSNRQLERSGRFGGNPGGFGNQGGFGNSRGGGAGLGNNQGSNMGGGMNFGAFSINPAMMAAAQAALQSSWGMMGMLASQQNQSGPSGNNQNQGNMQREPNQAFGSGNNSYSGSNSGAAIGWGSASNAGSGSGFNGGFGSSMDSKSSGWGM
Description: (§5) Non-specific binding sites were blocked for 1 hr at RT with PBS containing 1% BSA (Sigma) and 0.05% Tween-20 (Fisher Scientific). 6×His-SUMO-TDP43 proteins at a concentration of 1.7 μM were allowed to bind to antibody-coated plates for 1 hr at RT in PBS buffer containing 1% BSA, 300 mM arginine and 0.1% PEG 5000, pH 7.5. Plates were incubated for 1 hr at RT with human antibodies of present invention, titrated in a three-fold dilution series, followed by HRP conjugated anti-human IgG Fc γ (Jackson ImmunoResearch) in PBST containing 1% BSA. HRP activity was measured in a standard colorimetric assay. EC₅₀ values were calculated using a four-parameter logistic curve fit on Softmax pro software (Molecular Devices).
(§6) We measured the binding affinity of the human-derived TDP-43 specific antibodies provided herein to properly folded 6×His/SUMO tagged TDP-43 using a capture ELISA in which native TDP-43 was immobilized without direct adsorption on the surface of the ELISA plate. This was achieved by immobilizing an anti 6×His antibody which then captured native TDP-43. […] After this immobilization step, binding by human antibodies was tested in regular buffers without interference of TDP-43 aggregation.

[11] = molecular target: T7, 6xHis-SUMO-TDP-43 (1-414), properly folded full length (human, UniProt Q13148 1-414); experiment: capture ELISA, antigen held by anti-6xHis antibody
T7 construct: Purified with KSCN and arginine, monomeric; captured on the plate by an anti-6xHis antibody; also called folded full-length TDP-43; 6xHis/SUMO tagged full length TDP-43; not shown: N-terminal 6xHis and SUMO tags from a modified pET19-b vector
T7 sequence (Q13148 whole entry): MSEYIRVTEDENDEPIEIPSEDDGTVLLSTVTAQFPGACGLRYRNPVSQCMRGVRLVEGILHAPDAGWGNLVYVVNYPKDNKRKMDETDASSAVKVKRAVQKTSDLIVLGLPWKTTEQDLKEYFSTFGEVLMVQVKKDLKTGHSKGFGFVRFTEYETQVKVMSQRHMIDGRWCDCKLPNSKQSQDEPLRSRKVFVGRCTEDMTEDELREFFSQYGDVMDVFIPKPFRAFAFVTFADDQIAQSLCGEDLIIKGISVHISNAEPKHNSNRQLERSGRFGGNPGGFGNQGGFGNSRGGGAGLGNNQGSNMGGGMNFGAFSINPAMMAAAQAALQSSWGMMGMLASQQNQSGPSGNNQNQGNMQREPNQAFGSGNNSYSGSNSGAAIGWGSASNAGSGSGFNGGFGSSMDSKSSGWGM
Description: as §5, §6

[12] = molecular target: T8, BSA (bovine, UniProt P02769); experiment: direct ELISA, BSA coated at 5 ug/ml as control, OD 450
T8 construct: control coating in the EC50 ELISA; also called bovine serum albumin (Sigma, Buchs, Switzerland)
T8 sequence (P02769 25-607 limits assumed): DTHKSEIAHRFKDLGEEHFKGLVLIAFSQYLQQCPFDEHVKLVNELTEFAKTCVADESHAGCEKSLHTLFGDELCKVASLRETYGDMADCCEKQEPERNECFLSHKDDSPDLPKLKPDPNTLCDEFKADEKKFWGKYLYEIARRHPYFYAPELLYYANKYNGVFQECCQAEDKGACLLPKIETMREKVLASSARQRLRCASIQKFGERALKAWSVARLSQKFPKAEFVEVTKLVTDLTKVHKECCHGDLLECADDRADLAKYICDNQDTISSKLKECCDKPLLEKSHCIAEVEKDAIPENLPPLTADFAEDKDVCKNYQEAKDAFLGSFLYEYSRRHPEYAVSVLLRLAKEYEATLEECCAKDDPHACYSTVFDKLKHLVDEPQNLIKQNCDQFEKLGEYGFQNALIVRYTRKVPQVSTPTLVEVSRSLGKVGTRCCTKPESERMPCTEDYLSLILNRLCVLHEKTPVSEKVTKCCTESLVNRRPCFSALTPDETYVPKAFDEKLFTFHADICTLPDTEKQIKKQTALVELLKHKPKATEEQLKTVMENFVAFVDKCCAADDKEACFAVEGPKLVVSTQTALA
Description: as §3, with “To determine the” for “The”, “to evaluate target-specificity,” for “their target target-specificity was determined substantially as described in Example 2 above. Briefly,”
The half maximal effective concentration (EC₅₀) of the human-derived TDP-43-specific antibodies for human TDP-43 and their target target-specificity was determined substantially as described in Example 2 above. […]

[13] = molecular target: T1, His-huTDP-43 domain III (amino acid …); experiment: Western blot, 300 ng recombinant protein per lane, primary antibody 10 nM
Description: as §1

[14] = molecular target: T2, His-huTDP-43 domain II (amino acid …); experiment: as above
Description: as §1

[15] = molecular target: T3, His-huTDP-43 domain I (amino acid …); experiment: as above
Description: as §1

[16] = molecular target: T9, TDP-43 in human FTLD-U (and ALS) patient tissue sections (human, UniProt Q13148 1-414, limits assumed); experiment: immunohistochemistry, FTLD-U case hippocampus
T9 construct: Target of immunohistochemistry; the forms present are not defined; also called pathologic TDP-43; cytoplasmic, nuclear, neuritic TDP-43 in FTLD-U case tissue
T9 sequence (Q13148 whole entry): as the sequence (Q13148 whole entry) above

[17] = molecular target: T4, His-huTDP-43 domain IV (amino acid …); experiment: direct ELISA, TDP-43 fragments coated at 6.6 ug/ml, OD 450
Description: as §4

[18] = molecular target: T2, His-huTDP-43 domain II (amino acid …); experiment: direct ELISA, coated antigen

Row | Binder | EC50 [5] [nM] | EC50 [6] [nM] | binding result [7] | binding result [9] | EC50 [10] [nM] | EC50 [11] [nM] | further results
1 | NI-205.68G5 (antibody, human IgG1, V domains shown, Human-derived) VH: QVQLVESGGGVVQPGRSLRLSCAASGFTFSSYGMHWVRQAPGKGLEWVAIIYYDSSQRYYADSVKGRFTISRDNSKNALYLQMNSLRAEDTALYYCARDLPFHYHRSASFAPSDTWGQGTLVTVSS VL: EIVLTQSPGTLSLSPGERATLSCRASQAVTNNYLAWYQQKPGQAPRLLVYAASSRATGIPDRFYGSGSGADFTLTISRLEPEDFAVYYCQQYGTSPITFGQGTRLEIK | > 100 | > 100 |  |  |  |  | binding result [1]: no binding (tested: 10 nM); binding result [2]: no binding (tested: 10 nM); binding result [3]: no binding (tested: 10 nM); binding result [4]: no binding (tested: 10 nM)
2 | NI-205.21G1 (antibody, human IgG1, V domains shown, Human-derived; also called NI-21G1) VH: QVQLVESGGGVVQPGMSLRLSCAASGFSFSSHGMHWVRQTPGKGLEWLAVISYDASNKSYADSVKGRFTISRDNSKKTLYLQMDSLRVEDTALYYCANAFSSSASGGYWGQGTLVTVSS VL: DVVMTQSPLSLPVTLGQPASISCRSSQSLVHSDGVTYLNWFQQRPGQSPRRLIYKVSNRDSGVPDRFSGSGSGTDFTLEISRVEAEDVGIYYCMQGTHWPPWTFGQGTKVEIK | 4.1 | 4.1 |  |  | 0.33 | 4.4 | binding result [12]: no binding (tested: about 4x10^5 pM); binding result [13]: no binding (tested: 10 nM); binding result [14]: no binding (tested: 10 nM); binding result [15]: no binding (tested: 10 nM)
3 | NI-205.58E11 (antibody, human IgG1, V domains shown, Human-derived) VH: EVQLLESGGGLVQPGGSLRLSCAASGFTFSSYSMSWVRQAPGKGLEWVATVGYGGTIYYADSVKGRFTISRDNSKNTLYLEMNSLRAEATAVYYCAKANYGGNRFGLDVWGQGTTVTVSS VL: QSALTQPPSASGSPGQSVTISCTGTSSDVGGYNYVSWYQHQPGKAPKLMIYEVSKRPSGVPDRFSGSKSGNTASLTVSGLQAEDEADYYCSSYAGSNNLGVFGTGTEVTVL |  |  |  |  |  |  | binding result [5]: no binding; binding result [11]: no binding; binding result [16]: no binding (tested: 50 nM)

More lines, in order of falling EC50 [5], values ahead:

Row | EC50 [5] [nM] | EC50 [6] [nM] | binding result [7] | binding result [9] | EC50 [10] [nM] | EC50 [11] [nM] | Binder | further results
4 | 2.8 |  | no binding | no binding | 33.5 | > 125 | NI-205.44B2 (antibody, human IgG1, V domains shown, Human-derived; also called NI205.44B22) VH: QVQLQESGPGVVKPSQTLSLTCTVSGVSVGSGDYYWSWIRHHPGKGLEWIGYISFFGSSNYNPSLKGRVSMSVDTSNNQFSLNLKSVTAADTAVYFCATGNAYSFWGQGTMVTVSS VL: QSALTQPASVSGSPGQSITISCTGTSSDIGTHNLVSWYQQHPGKAPKLIIYEIFERPSGISSRFTGSKSGNTASLTISGLQAEDEADYFCCAYSVTVIFGGGTKLTVL | binding result [8]: no binding
5 | 1 |  | no binding | no binding |  | > 98 | NI-205.1A9 (antibody, human IgG1, V domains shown, Human-derived) VH: QVQLVQSGSELKKPGASVKVSCKASGYTFTSYAMNWVRQAPGQGLEWMGWINTNTGNPTYAQGFTGRFVFSLDTSVSTAYLQISSLKAEDTAVYYCARDRIDGSSWSSWFDPWGQGTLVTVSS VL: QSVLTQPPSVSGAPGQRVTISCTGSSSNIGAGYDVHWYQQLPGTAPKLLIYGNSNRPSGVPDRFSGSKSGTSASLAITGLQAEDEADYYCQSFDSSLSSSVFGGGTKLTVL | binding result [17]: no binding; binding result [10]: no binding; binding result [18]: binds
